Laboratory results from the Human Domainome abundance scans (Beltran et al. 2025).
± gives the uncertainty stated by the source.

B1: POU domain, class 5, transcription factor 1, residues 134 to 212; numbered along this chain, Q01860 (parent)
chain: EESQDIKALQKELEQFAKLLKQKRITLGYTQADVGLTLGVLFGKVFSQTTICRFEALQLSFKNMCKLRPLLQKWVEEAD

Variants of: B1
Assay: abundance fitness (aPCA) (normalised: wild type 0, dead -1); higher = more abundant; growth selection in yeast, the domain comes from the species named
Details: Homo sapiens

Abundance fitness of substitutions, site by site:
A32: W -0.682 ± 0.29; V -0.785 ± 0.31
L36: F 0.013 ± 0.26; K 0.087 ± 0.15; V 0.002 ± 0.065; Q 0.283 ± 0.14; M 0.168 ± 0.15; S 0.105 ± 0.088; H 0.362 ± 0.15; T 0.293 ± 0.096; G -0.306 ± 0.085; N 0.144 ± 0.21; A 0.273 ± 0.065; I 0.311 ± 0.2; R 0.235 ± 0.059; E 0.155 ± 0.094; Y -0.037 ± 0.32; P -0.6 ± 0.26; W 0.249 ± 0.077; D 0.112 ± 0.1; C 0.111 ± 0.16
K44: M -0.374 ± 0.39; G -0.382 ± 0.079; V -0.441 ± 0.11; Y -0.489 ± 0.44; S -0.805 ± 0.33; C -0.381 ± 0.18; D -0.262 ± 0.2; Q 0.018 ± 0.091; H -0.181 ± 0.27; E 0.016 ± 0.077; N -0.26 ± 0.23; P -0.3 ± 0.15
V34: L -0.258 ± 0.21; I -0.031 ± 0.35; A -0.742 ± 0.29; Q -0.231 ± 0.32; G -0.518 ± 0.17; P 0.101 ± 0.2; T -0.797 ± 0.47; R -0.637 ± 0.2
D33: G -0.283 ± 0.12; V -1.19 ± 0.42; S -0.572 ± 0.19; W -0.563 ± 0.23; T -1.08 ± 0.5; F -0.407 ± 0.31; M -0.497 ± 0.34; K 0.128 ± 0.2; P -0.227 ± 0.2; L -0.563 ± 0.23; A -0.594 ± 0.19; E -0.081 ± 0.13; Q 0.236 ± 0.13
V45: D -0.28 ± 0.13; R 0.036 ± 0.049; L -0.338 ± 0.12; K 0.085 ± 0.1; C -0.101 ± 0.093; N 0.001 ± 0.25; E 0.16 ± 0.05; F -0.15 ± 0.17; S 0.012 ± 0.077; A 0.127 ± 0.049; P 0.12 ± 0.077; T -0.005 ± 0.11; H 0.013 ± 0.082; G -0.153 ± 0.043; Q 0.044 ± 0.091; M -0.122 ± 0.21
G43: C -0.485 ± 0.41; S -0.651 ± 0.46; A -0.282 ± 0.3; K -0.516 ± 0.31; V -0.585 ± 0.23; N -0.341 ± 0.37; R -0.613 ± 0.17
L41: T -0.04 ± 0.35; D -0.244 ± 0.46; R -0.345 ± 0.15; W 0.046 ± 0.14; Q 0.048 ± 0.29; A -0.695 ± 0.38; V -0.329 ± 0.17; E -0.224 ± 0.21; G -0.934 ± 0.31
G35: V -0.743 ± 0.3; A 0.266 ± 0.092; Q -0.039 ± 0.25; C -0.64 ± 0.32; L -0.769 ± 0.46; S 0.134 ± 0.14; R -0.32 ± 0.17; P -0.452 ± 0.29; T -0.697 ± 0.42
G39: V -0.85 ± 0.27; A -0.534 ± 0.19; S -0.006 ± 0.092; D -0.852 ± 0.42; T -0.613 ± 0.28; W -0.712 ± 0.33; E -0.469 ± 0.17; P -0.325 ± 0.27; R -0.318 ± 0.095; H -0.441 ± 0.39; K -0.187 ± 0.24
V40: C 0.354 ± 0.23; H 0.12 ± 0.28; I 0.038 ± 0.27; L -0.045 ± 0.13; K 0.198 ± 0.16; N 0.028 ± 0.28; W -0.151 ± 0.14; E 0.1 ± 0.13; Y -0.237 ± 0.35; D -0.621 ± 0.44; M -0.087 ± 0.13; S -0.026 ± 0.14; G -0.01 ± 0.076
F42: S -0.055 ± 0.075; L -0.469 ± 0.081; Q -0.875 ± 0.24; D -0.481 ± 0.31; R -0.627 ± 0.076; M -0.607 ± 0.15; P -0.654 ± 0.15; Y -0.028 ± 0.27; T 0.166 ± 0.07; I -0.49 ± 0.19; W -0.165 ± 0.08; G -0.091 ± 0.049; E -0.493 ± 0.096; C 0.092 ± 0.15; A -0.014 ± 0.054; N -0.191 ± 0.2; V 0.127 ± 0.046; K -0.262 ± 0.098
T37: Y -0.193 ± 0.38; P -0.621 ± 0.33; D 0.412 ± 0.14; A 0.345 ± 0.074; M 0.116 ± 0.12; I -0.093 ± 0.18; R 0.339 ± 0.054; C -0.733 ± 0.34; E 0.681 ± 0.076; H 0.162 ± 0.2; L -0.283 ± 0.12; S 0.153 ± 0.087; F 0.319 ± 0.23; Q 0.394 ± 0.097; G 0.296 ± 0.06; K 0.082 ± 0.16
L38: P -0.662 ± 0.41; T -0.035 ± 0.23; W -0.214 ± 0.26; R -0.511 ± 0.13; Q -0.482 ± 0.36; M 0.185 ± 0.15; A -0.275 ± 0.14; C -0.029 ± 0.25; V -0.52 ± 0.14; S -0.37 ± 0.17; K -0.603 ± 0.31; H -0.313 ± 0.38; G -0.832 ± 0.18; E -0.701 ± 0.24
